These results are taken from the supplement of paper PMC12042874.

± gives the uncertainty stated by the source.

A short description of this data set: amyloid nucleation score (Sup35N fusion, yeast selection) (log enrichment); library NNK1; higher = more nucleation; inactive = no reads after selection. The method, boiled down: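 The nucleation score equals the log enrichment of output over input reads from DiMSum, centred on the mode score of non-aggregating sequences. It was computed only for sequences with 100 or more input reads. The reads came from Illumina sequencing of plasmid inserts from psi-negative yeast expressing Sup35N fused to peptides of 20 random codons, induced with 100 μM copper sulfate for 24 hours and grown 7 days at 30°C without adenine and uracil.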
As to AWLLLEDWFVNRVILICGAK, the amyloid nucleation score was 0.027 ± 0.27. Turning to AGAVCWACDR, the amyloid nucleation score was -1.4 ± 0.77. RSQFWHFQWWTKSHNIMGLD registered an amyloid nucleation score of 0.803 ± 1.1. For TYLRKIKKRFPGSRYPSLMG the value was 0.15 ± 0.46. For LWLHGGARNVDMCKVIFYFG the value was 6.94 ± 0.088. In turn, SSFDMRDILYLSSNILRSRM registered an amyloid nucleation score of -0.505 ± 0.35. For KELCCRASSDLMLRWQVKVF the value was 0.027 ± 1.4; for TRCYFNSLMCTDTNSCIAGV, -0.135 ± 0.26. For KHLYVR the value was -0.752 ± 0.56; for TRYSTSISGC, 0.332 ± 0.69; for RASWNMNFSNFFDKMCRIPS, -0.334 ± 0.35. For DWQMMVYRNAFLPR the value was -1.32 ± 1.3; for FLGMAHLCHEEGVRKLGGES, 0.679 ± 0.64. SSKEWLNADAVPGNGVEAIV came in with an amyloid nucleation score of -0.338 ± 0.53. As for AFYNCYSGNYFNYIFIYRCT, the figure is 7.283 ± 0.053; as for MLKGMQSDSLKLNGDVDPCV, 0.175 ± 0.28; as for VRLVVQWEKVKDCLIVWD, 1.85 ± 0.12. For IQYNSKIRVFALDYPIEFPC the value was 0.083 ± 0.61; for SKIGDEM, -1.29 ± 1.2; for LVVKQLLNSAGCTRPCTVRC, 0.164 ± 0.55. As for VRSGRSDATAAKYFLHLTWY, the figure is -0.465 ± 0.89. NNLLLSYSSFYMLMFQ registered an amyloid nucleation score of 3.42 ± 0.076. For DIRVLTPLRITFHLKAQGLL the value was -0.266 ± 1.4; for LRYSIISLAANSKTADG, 0.663 ± 0.7; for SLTAVISTKVL, -0.663 ± 1.7.

Substance LESHSNTINIGCKNFGCNRG registered an amyloid nucleation score of 5.38 ± 0.073. As for LDIVCLPKFVVWTDTV, the figure is -0.301 ± 0.56; as for VMAGHFCYWCRCRVARQLSW, -0.69 ± 0.77.

SSFRKTLLMVIYARNEGCMS: the amyloid nucleation score worked out at 0.471 ± 0.97.

On to RILVVNWVYPSTMNGVSQWS, for which the amyloid nucleation score is 2.63 ± 0.2. In the case of DVCASGRKIVRFFPMSARAQ, the amyloid nucleation score entry was “inactive”. For AHFKYN the value was 0.271 ± 1.4; for VRKISIFFMNSWVWLSSRFH, 0.069 ± 0.49. For VCTYGFGC the value was “inactive”; for DHMRYSTRRWQYPTSVVLSG, 0.543 ± 0.25. As to LRVSYWQDLAVLYLDSPLGL, the amyloid nucleation score is -0.358 ± 0.87. In turn, TVVWFTLIFLSLESSCINSL registered an amyloid nucleation score of 1.22 ± 0.2. Regarding GYHDGISMFSCVYSCYQSVS, the amyloid nucleation score came to 5.92 ± 0.061. On to HCRPFFSVEINKCLSC, for which the amyloid nucleation score was 5.15 ± 0.1. For AGMAWYTPVWVSGWGQPHTE the value was -0.119 ± 0.38; for AKLAPCNSLVIDTY, 1.89 ± 0.4. As for VYRLEVIARK, the figure is 1.69 ± 0.33; as for IHEMTSWVTCRFCGVFKYIL, 2.03 ± 0.13.

Substance RDGAVFYFMEVRVSYRFLTN showed an amyloid nucleation score of -0.392 ± 0.7. On to CHEALDLMCHADTVIFALAE, for which the amyloid nucleation score is -0.216 ± 0.57. In turn, IYMYIVNRRVTGSFRF registered an amyloid nucleation score of -0.136 ± 0.23. For LWYTALINTNACCVIRQDFR the value was 1.04 ± 0.8. As for LPCLSMKVLDTNYNLPCSKN, the figure is -0.458 ± 0.32; as for YIIYGWVEIF, -1.14 ± 2.1. For FFTKAGRPFGLTRDISVL the value was -0.23 ± 0.87; for DVRLRRYEGGQSSVTSHHDN, 0.028 ± 0.53. HVCKRRFRFRGLTILCRFTL displayed an amyloid nucleation score of -0.769 ± 1.1. The substance LMGSRAGSLTQLIESNTKER returned an amyloid nucleation score of -0.748 ± 1.1. QRWLWKRNLDCQRDTSL came in with an amyloid nucleation score of 0.514 ± 0.75. Take CFLSLVWQHGHWWEGLESRL: the amyloid nucleation score worked out at 0.714 ± 0.53.

Substance LFTVKKVFQLLYL gave an amyloid nucleation score of 0.936 ± 0.7. For DVGLFMK the value was -0.686 ± 0.53; for LVSTYGEIQKLHGYLLGMLG, 0.002 ± 0.42; for HDSAELDSRYNSASCVSLWL, -0.213 ± 1.1. In the case of INSNWASLRDRYARIASRSS, the amyloid nucleation score is -0.372 ± 0.47. The substance SIVLTIIKHFDYMFQDRGG came in with an amyloid nucleation score of 6.06 ± 0.07. As for ALCFCWNWLLCTDKGL, the figure is 6.056 ± 0.048; as for MLVFNNFEPLFLFVSTWTCQ, 7.11 ± 0.06. In the case of PSTREYFNCTKMAYYCIRRP, the amyloid nucleation score is -0.005 ± 1.7. As for SCEGGCAGSCGVP, the figure is -0.641 ± 1.5; as for GCTLLESCVYGKSVRSYHQW, 0.253 ± 0.52; as for GYCVLVTLLGNTNEYPAGCP, 0.563 ± 0.41. Take WSFQPGRVVFHMFERGDHCC: the amyloid nucleation score was 0.187 ± 0.4. On to LFKSPWGDDHSIST, for which the amyloid nucleation score is 0.434 ± 0.29. On to WLLTNPPLIVFTVRRNSRFS, for which the amyloid nucleation score was -1.09 ± 1.9. For VIDAIQPRKYGFV the value was -0.462 ± 0.58; for NTVQNSMG, “inactive”; for NDTLGSCLDNSLQSGSWWLR, 0.276 ± 0.39. VKNRNKGTYRCWVVYITGKS had an amyloid nucleation score of -0.205 ± 0.28. For RSHQSQGMPSLFNLSLVLFY the value was 6.489 ± 0.064; for ALVTWWSYHSLMVSGCKVRS, -0.299 ± 0.59; for MSEVTMGLRTMFVIFNR, 2.79 ± 0.1.

LGFSVCSRLVFIWEYASFGK: the amyloid nucleation score came out at 0.459 ± 0.46. Regarding EGICNYSSKYCQGMVLIGSS, the amyloid nucleation score was -1.52 ± 1.5.

On to YASTPWYYMCWFIWAYCFSS, for which the amyloid nucleation score result was “inactive”.

Substance ALNSQSGFKFERSMYLLVIG had an amyloid nucleation score of 1.17 ± 0.43. Substance FYGIARNVLRVGESMARYT came in with an amyloid nucleation score of -0.059 ± 1.2. On to NTSSLVMVSCDTPRYTNTEV, for which the amyloid nucleation score is -1.04 ± 0.72. For INCQMWYRGPYIIQFLNLGW the value was 6.846 ± 0.055; for WSRTDRDDLLVYMKLPRHVY, 0.472 ± 0.37; for YYDSGVSPAVQSPECSTSGA, 0.186 ± 0.93. For VFWTYVGERKKSLVCRNLGA the value was -0.189 ± 0.71; for RGWGELVVVNHLLRRGGGEG, -0.029 ± 0.69; for SVENNTAPICNTKSSVSDSL, 0.852 ± 0.93. For GFPVVAEHVVEFKLV the value was 0.093 ± 0.7. Consider NHTGYTWMNVR, for which the amyloid nucleation score is -0.099 ± 0.26. Regarding IALNRMFSISLVFYDKGFWY, the amyloid nucleation score result was “inactive”. As for STFAPNTSFGTIEIRFWICV, the figure is -0.702 ± 1.1; as for KPMFSLGSNYKMCIYHGCFM, 8.183 ± 0.061. As for WYENMFN, the figure is 3.15 ± 0.14. As to RLYSDAQ, the amyloid nucleation score is -0.003 ± 0.71. In the case of LSHSEDVSQETTIYPNLSCN, the amyloid nucleation score is -0.533 ± 0.68. Take LYRYEYDCNSLSMS: the amyloid nucleation score came out at 2.73 ± 0.078. As for LWSVCLVTSVQKDAGVLPSG, the figure is 0.85 ± 0.62; as for NFLFCFCHYCIWKVCTVAGC, -0.073 ± 0.45. For HNHADATQKKCGVQ the value was -0.112 ± 0.28.
